Test results reported in patent publication US7625718B2, “SVCT2 transporters expressed in blood brain barrier cells” (XenoPort, Inc., priority 2005, dated 2009).

Tested on: T1, O=C1O[C@H]([C@@H](O)CO)C(O)=C1O
T1 construct: expressed in transfected cells; host or cells: HEK-TREx cells, tetracycline-induced
Assay: hSVCT2 direct uptake assay in HEK-TREx-hSVCT2 cells (LC-MS-MS)
Assay type: cell-based, human
Settings: other: HEK-TREx-hSVCT2 cells induced to express hSVCT2
Method: A modified direct uptake assay was developed to determine the ability of test compounds to be transported into HEK-TREx cells induced to over-express hSVCT2. Four concentrations (bracketing the affinity as measured by competition assays) per compound were routinely tested. Non-specific uptake was determined by measuring the uptake into cells not induced to express the transporter (“no tet”).
The direct uptake assays were prepared as follows: Compounds were prepared for assay by diluting a 100 mM stock concentration (in DMSO or water, depending on compound solubility) to the appropriate working concentration. Typically, four concentrations bracketing the IC50 were tested. The highest test concentration for each compound was made in an Eppendorf tube and diluted into HBSS. The samples were robustly vortexed and centrifuged for 10 minutes at 13,200 rpm to spin down any precipitate. The supernatant from these samples (˜150 μl/well) was carefully removed and placed into six wells of row A (cmpd 1: A1-6; cmpd 2: A7-12) or row E (cmpd 3: E1-6; cmpd 4: E7-12) of a 96-well polypropylene “compound” plate. Three additional 2-fold dilutions were made in the subsequent rows (B-D or […]) in HBSS. […]

In the case of hSVCT2 (Homo sapiens), the Km is reported as 14 µM.
